According to paper PMC5431086, “The Rational Design of Therapeutic Peptides for Aminopeptidase N using a Substrate-Based Approach” (Scientific Reports, 2017):

Biological target: recombinant human aminopeptidase N (hAPN) (human) (UniProt P15144)
Test: enzyme inhibition assay (competition with the fluorogenic substrate H-Ala-AMC); 0.1 μM APN, 100 μM H-Ala-AMC, 100 mM Tris pH 7.2, Brij 35 0.0002% w/v, 37 °C, triplicate; inhibition competitive, Ki from the IC50 by the Cheng-Prusoff equation

| Ki [µM] | IC50 [µM] | Substance |
| --- | --- | --- |
| > 500 |  | cyc-nHSPW (peptide) |
|  | > 500 | nDQIY (peptide) |
|  | 6.5 | nHSPW (peptide) |
